{"source": "patent CN113929774A", "about": "(INST MICROBIOLOGY CAS, dated 2022)", "biological_target": "SARS-CoV-2南非株(B.1.351)活病毒的S蛋白 (SARS-CoV-2 B.1.351)", "test": "cell-based or functional assay"}
{"binder": "9K抗体 (antibody, V domains shown) VH: EVQLVESGGGVVQPGRSLGLSCAVSGFTFSSYAMHWVRQAPGKGLEWVALISNDGTIDSYADSVKGRFTISRDNSKNTLYLRMSSLRAEDTAVYYCARDKEQLVPTFDYWGQGTLVTVSS VL: not shown", "values": [{"measurement": "中和滴度(半抑制浓度，IC50), live virus CPE assay on Vero E6 cells", "result": 11.5, "unit": "µg/mL"}]}
